# Test system: MS2 coat protein
# Assay: apparent KD of MS2 coat protein; higher = weaker reporter binding
# Conditions: Eterna round: R107; input ligand: none
# Procedure, shortened: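 The buffer was 100 mM Tris-HCl pH 7.5 with 80 mM KCl and 4 mM MgCl2, used without or with constant ligand. In it, RNA switches transcribed on-chip from Illumina sequencing clusters were titrated with SNAP-549-labelled MS2 coat protein in twofold steps from 0.7 or 1.5 nM to 3 µM. Apparent KD for each design is the median of its normalised cluster binding-curve fits.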
row,Sequence,apparent KD of MS2 coat protein [µM]
1,GCCAUCGGCGAAAGCCGAUGGUAUACAGAAGGAGCGCACGAAAGUGCAGGUAGGUCGCUGAACAUGAGGAUCACCCAUGUAAUAA [#29 Same State - Arginine A],0.0202
2,AGCAAGUUCGGAAGGAGCGGUACAUGAGGAUCACCCAUGUAUUCAAUCGUGAUCGGAACGUGCCAGGUAGGUCGCCGAAUGCGUC [XArg-B1],0.0131
3,GGGUACAUCGCGGCCGCCACUCAUGUAAAUGCAUGAGGAACACCCAUGCCGAUGGAGACAUCGGAGAGGACCGGGUGAUGUACCG,0.11
4,GCUUGGGUCGCACGGCCCUGGCGGUGCGAUACCAGCACGGUAACGUGCCCUUGGCAGCGCACAUGAGGAUCACCCAUGUGGUGCG [#1 Exclusion - Theophylline A Attempt #23 (HarryS)],0.0126
5,GGGCAAGAGGGAAGGAGCGUCAGCUGAGUCACAUGAGGAUCACCCAUGUCGCACAUAGUGUGACAGGUAGGUCGCCCUCUGCCCU [Zaistiqu],0.131
6,CCUAUAUAGUCGGCCGCCACUGACUACAUGAGGAUCACCCAUGUAACACGAACAUGGUCCUGGAUCAGGACCGGGACUAUAUAGG [Tryp B Ex t5],0.0207
7,AUACAUGAGGAUCACCCAUGUAUAGAUGAAGGAGCGACCAGAGGGUCAGGUAGGUCGCAUCACAUGAGGAUCACCCAUGUAUUUU [DOUBLE!!! :-D #10],0.064
8,UGUAUGGACUGAAGGAGCGGGUUGAUAACUUGAGGAUCACCCAGGUAAAAGGCGAAAGCCACCCAGGUAGGUCGCAGUCCAUACU,0.0579
9,ACACAUGACGCGGCCGCCACUGCAACAUGAGGAUCACCCAUGUCACCCAUGUAUGACAUGAGGAUCAGGACCGGGCGUGUGUGGA [Same State Tryptophan B 3],0.566
10,CACAUGAGGAUCACCCAUGUCUGAACUGAAGGAGCGCUAAAUAAGGCAGGUAGGUCGCGGAAUUUUGUGUGCAUAUGCAUAUGGG [9.M],0.0268
11,AUCGUACCUGAUGAUACCAGCAUGUGCUCGUAACAUGAGGAUCACCCAUGUGAUCAGUGAUGCCCUUGGCAGCAUGAUCGGUACA [Same State - Theophylline B (Freestyle 16)],0.066
12,ACAUGAGGAUCACCCAUGUAAUAAUCAGAAGGAGCGUGGAAUAACACAGGUAGGUCGCUGAUGUUUUGUUAAAAUUAUUCGUGAA [JR_SSArginiA_Sub002],0.0135
13,UGUUUUGUGGGAAGGAGCGCAUACUUCACAUGAGGAUCACCCAUGUCAAGACGUGAGUCAGUGCAGGUAGGUCGCCUAGUUAAGA [Same State - Arginine B (Freestyle 16)],0.0704
14,AUUGACAUGAGGAUCACCCAUGUAUCCGAAGGAGCGGCAGAUGUGCCAGGUAGGUCGCGGGUGAAAGAGACAUCGUAGGGUGUCG [Same State - Arginine A / B [only NuPack]],0.256
15,AAUUAUUUCUCAAUUAUUUAAUCUUCAGAAGGAGCGUGAUGAUUCACAGGUAGGUCGCUGAUGACAUGAGGAUCACCCAUGUAUU [JR_SSArginiA_Sub003],0.0301
16,GGGCAAGAGGGAAGGAGCGUCAGCUGAGUAACAUGAGGAUCACCCAUGUAGCACAUAGUGUGACAGGUAGGUCGCCCUCUGCCCU [SS-ArgB6],0.00897
17,UGUAUGUGAUCUGAUACCAGAGUGACGCGAAAGCGACCUGAGGAUCACCCUGGUAAAUAACUCCCUUGGCAGCAGAUCGCAUACU,0.045
18,ACAUGAGGAUCACCCAUGUGUGUAAGUCCUCGAGGACCGGUACGGCCGCCACUCGAACGAGUGAAGCCUGAUACUAAGUAUCAGG [SS Trp A s5],0.0154
19,GUAUGAGUUGACUGUGAGACUGGCGUGGAAGGAGCGCACGGAGGUGCAGGUAGGUCGCCACAUGAGGAUCACCCAUGUCAGGCCG [Ceedtila],0.038
20,UAUCGUCAGACGGCCGCCACUAGAACAUGAGGAUCACCCAUGUACGGCCGCCCGGUGUGAUCCACUAGGACCGGGUCUGACGAAU [(Trp1)-(Ms2)-(T)'-(M)'-(Trp2)_Design23],0.0668

# Same assay, conditions: Eterna round: R107; input ligand: theophylline 20 uM
row,Sequence,apparent KD of MS2 coat protein [µM]
1,CGAAUACGAAUUGAUACCAGCAUGUUAACAUGAGGAUCACCCAUGUUAAGGAUAACAUAAUGCCCUUGGCAGCAACGUAAAUUCG [Ab],0.0177
2,UCUUGAGUUUCGGAUACCAGUGUUGUCGAUACAUGAGGAUCACCCAUGUUAGAGGAUGUACACCCUUGGCAGCCGGCUGUGGCGG [zszmullin],0.0219
3,AUAACAUGAGGAUCACCCAUGUAAGGUGAUACCAGACGAAGUAAAGUCCCUUGGCAGCACAAGCAUAGUUGCGAAUAUUGAUAGA [JR_SSTheophyA_Sub005],0.532
4,GCCAUCGGCGAAAGCCGAUGGUAUACAGAAGGAGCGCACGAAAGUGCAGGUAGGUCGCUGAACAUGAGGAUCACCCAUGUAAUAA [#29 Same State - Arginine A],0.0249
5,AGCAAGUUCGGAAGGAGCGGUACAUGAGGAUCACCCAUGUAUUCAAUCGUGAUCGGAACGUGCCAGGUAGGUCGCCGAAUGCGUC [XArg-B1],0.0231
6,GGGUACAUCGCGGCCGCCACUCAUGUAAAUGCAUGAGGAACACCCAUGCCGAUGGAGACAUCGGAGAGGACCGGGUGAUGUACCG,0.157
7,GCUUGGGUCGCACGGCCCUGGCGGUGCGAUACCAGCACGGUAACGUGCCCUUGGCAGCGCACAUGAGGAUCACCCAUGUGGUGCG [#1 Exclusion - Theophylline A Attempt #23 (HarryS)],0.0256
8,GGGCAAGAGGGAAGGAGCGUCAGCUGAGUCACAUGAGGAUCACCCAUGUCGCACAUAGUGUGACAGGUAGGUCGCCCUCUGCCCU [Zaistiqu],0.158
9,CCUAUAUAGUCGGCCGCCACUGACUACAUGAGGAUCACCCAUGUAACACGAACAUGGUCCUGGAUCAGGACCGGGACUAUAUAGG [Tryp B Ex t5],0.0242
10,GAUAGUUGAUGGGAUACCAGCCUACACAUGAGGAUCACCCAUGUGAUUCGUGUACGACUGGGCCCUUGGCAGCCCAUAUUGUGUA [#12 Same State - Theophylline B],0.202
11,AUACAUGAGGAUCACCCAUGUAUAGAUGAAGGAGCGACCAGAGGGUCAGGUAGGUCGCAUCACAUGAGGAUCACCCAUGUAUUUU [DOUBLE!!! :-D #10],0.0678
12,UGUAUGGACUGAAGGAGCGGGUUGAUAACUUGAGGAUCACCCAGGUAAAAGGCGAAAGCCACCCAGGUAGGUCGCAGUCCAUACU,0.0582
13,AUGGUCGACGAUCUGCGAAAAGCAGAUCGACGAGGACCGGUACGGCCGCCACUCGUGUUCAUUAAACAUGAGGAUCACCCAUGUA [#15Tryptophan A Same State],0.0687
14,ACACAUGACGCGGCCGCCACUGCAACAUGAGGAUCACCCAUGUCACCCAUGUAUGACAUGAGGAUCAGGACCGGGCGUGUGUGGA [Same State Tryptophan B 3],0.491
15,GAUGAACUAUAUGAUACCAGACAACAUGAGGAUCACCCAUGUGAUAGUCGUCCUCUGCCUGUCCCUUGGCAGCGUAUAGUUUAUC [XTheo B #19],0.0747
16,AGUAUUGGAAACAGUACUAGUGAUCCGGUCCGAGGACCGGUACGGCCGCCACUCGAAUUAAAUAAACAUGAGGAUCACCCAUGUA [Ex Tryptophan A 15],0.0187
17,CACAUGAGGAUCACCCAUGUCUGAACUGAAGGAGCGCUAAAUAAGGCAGGUAGGUCGCGGAAUUUUGUGUGCAUAUGCAUAUGGG [9.M],0.0372
18,AUUCAUGGAAACAUGACAUAGGGAUCCGGUCGAGGACCGGUACGGCCGCCACUCGUUUGGAGGCACAUGAGGAUCACCCAUGUUA [SS Tryp A #7],0.118

# — the supplement of paper PMC9170038
